The data set is described as follows: label from the status in PepcDB records.
Consider “MFHLIRWQDIADIIIMSFLAYRLYSWFRHTRAMQVLIGLGILAGVYFVTRNLGLFMTSWILQELGTVLFVLIIVVFQAEIRQALYRFSLLRTFIGRQEGGGELDLAELGRTVFGLARERTGALIVLQRQEALDDYLLHGVKVDGLPSSHLLGSIFRNGTPLHDGAVIIKDGRVSQASCHLPLSMKTELPQNFGTRHRAGIGLSERSDAVVIIVSEERGEVGMALAGEYRKIASPEEFAEVIQGLLYPQRPENVAFTLRQRLLRNLVPKIVTTLIVIAGWLVVTTKEGGIFTVTVPIKFHNLPPRSVLVKSVPESVEVQLKVFTSLIPSPRQLDLVADLNLAGVHDGVNSLAVKDDDLNLPLGVVVTGINPPMVKVTIAGKERKQLRVRPKLTGQLPGRAKLRSVTADPDTVVVEGPGHLLEGLESLPTETVDLAGLRRGGVVERRVVSPSPQIRVLRDEPVRVVVVTSVK”, for which the protein production entry is on record as “failed”.

As for “MFIASFITGPFQTNCYLLAREQGSECVIVDLGMGAEEFLGDALRTHHLVPVAIAVTHGHIDHIGSARQVGDEYGIPVLCPRDDRHLLSDPMAGLSDFARPLIEQWYGSTTLREPEQVVDVEPFSHHQFANLDLEFLHAPGHTPGCSMIRTIDAEFGPIVMSGDVVFAGSIGRTDMPGGDPAQMSYSLSDVVWSLDDSTHVLPGHGGPTTMANERLTNPFLGRR”, the protein production entry was “failed”. Consider “MFIERLVALLLLFAGEFAYLRIADRFNIIDRPNQRSSHKKNVLRGGGIIFLLGVWMYAFLNTTGYPLFIGGMTLIASVAFIDDVCSLSPRFRFFVQFVAMFLLLQEAGMLVENKVWFLLPTMILGVCIINAYNFMDGINGMTGAFSLMVLFTFWLLNREMAFIDATLIELLMISALVFCFFNFRNQAICFAGDVGSVGMAYCVIFILLKLVLFTGNVTYLLFLVVYGIDTVLTIFHRLLLHENLLQPHRKHLFQLLANEGGHSHVTVSITYVLLQLAISLGYIYLPIDKWLYSVIVTIGLVTAYLIIERKLYPKHKEYLKSLSCAVMDEGYSEKCLRNEN”, for which the protein production result is “failed”. Regarding “MFIGIYNRSVIVTYMGIASAMVGMYLADKHDIRYAILCLVIAGVCDLFDGKIARMCKRTEDEKLFGIQLDSLADVICFSALPISIFYGLGLNKWYHVVIYTAFTLAAITRLGFFNIKVMDSNRDKPVDYYSGLPVTCSAMIFPLFWLLSFCLDRHIFLLIYTIIIAVVAFLFVANIKIKKPKGIAYGVFVVLAVLMSLGIIFIGV”, the protein production result is recorded as “failed”. In the case of “MFIIIGDLIAFVISVLVTLIIASVPVWVAAKIVAKRSTFGQAVAATLLSLIIFFILLFVFSIFTPFIGGIFGFIGALWVFRKVYNIGWVDSLALTIIAIFIAIMIYIILGAFLFPVIHTSMIHEHAVVTSIIV”, the protein production result is reported as “failed”. To “MFIPAAQSAYRTLRKTQPRVRLNAIFKNGYSSKVEYKPIRSVLVANRGEIAIRVFRACTELGIKSVAVYSEQDKMHMHRQKADESYIVGKGLPPVEAYLNIPELIRVCKENDVDAVHPGYGFLSERSDFAQAVIDAGLRFIGPSPEVVQKMGDKVAARVAAIEAGVPIVPGTDGPVTTKEEALEFCKKHGLPVIFKAAYGGGGRGMRVVRKMEDVEESFQRASSEAKAAFGNGAMFIEKFIERPRHIEVQLLGDKAGNVVHLYERDCSVQRRHQKVVEIAPAPRLPIEIRDKMTEAAVRLARHVGYENAGTVEFLCDESGNFYFIEVNARLQVEHTVTEEITGIDLVQSQIRVAEGMTLPELGYTQDKIVPRGYAIQCRVTTEDPANDFQPNTGRLEVFRSGEGMGIRLDSASAYAGAIISPYYDSLLVKVISHASDLQSSASKMNRALREFRIRGVKTNIPFLLNVLENQKFLHGVLDTYFIDEHPQLFKFKPSLNRAQKLLNYMGEVLVNGPQTPLATTLKPALVSPHVPEVPLDLSPEAIEREERGEAKVTEPPKGLREVLVCEGPEAFAKEVRNRKELLLMDTTFRDAHQSLLATRVRSHDLLKISPYVTHKFNNLYSLENWGGATFDVALRFLHECPWERLEEMRKRIPNIPFQMLLRGANAVGYTSYPDNVVYKFCELAVQTGMDIFRVFDSLNYLPNLILGMEAAGKAGGVVEAAISYTGDVSDPKRTKYDLKYYTNLADELVKAGTHVLCIKDMAGLLKPESARLLITAIRDKHPDIPIHIHTHDTSGAGVASMLACANAGADVVDVAVDSMSGMTSQPSMGAVVASLQGTPLDTNLDLRTVSEYSAYWEQTRTLYAPFECTTTMRSGNADVYLNEIPGGQYTNLQFQAFSLGLGDFFEDVKKAYREANLLLGDIIKVTPSSKVVGDLAQFMVQNDLTADQVLERAEELSFPKSVVEYLQGSIGIPHGGFPEPLRSRVLKDMPRIEGRPGAELKDLDFDKLKKELQESHTCVTNRDVMSAALYPQVTNDFLNFREKYGPVDKLDTRIFLTGPKVGEEFDVPLERGKTLSVKALAVSADLKPNGIREVFFELNGQLRAVHILDKEAVKEIHVHPKANKSNKSEVGAPMPGTVIDIRVKVGDKVEKGQPLVVLSAMKMEMVVQSPLAGVVKKLEIANGTKLEGEDLIMIIE” belongs “failed”; to “MFIREEEQMKRMIITIGRQSGSSGRKVGELLAERLSLPLYGKAELQKIAEGTDDYEEVQAFYEEEPVNSLLYAIAMSQFEQEVGRIPFQRIRELASKESCIIIGRCAGHIFREDPEAVRVFIHADPKIRVQRIMEREGLSETKAKKFLEDTDSRRASFHKYYTKQEWGLAQDYELCLDSGVLGIEGTVEVLTEYLRFRGFLGNE”, “failed”; to “MFISCIILINYSYIFGKNIRYLYEFKVIWKSNNSLILFFIEFDRNFMTIKFKLFKCRRLNILIELINIENYFRNGNILCFIFNIPSIPRNLLINVFLTSSNKVNISIQGLKLEHHHHHH”, “failed”.

Take “MFITTEGINAGYTIKDVVEATSSLMLASEDIDKYNMFDQLFDEAKQKLKKKADLLEGDGIIGLKYNTEVVEVNGAPKFLVVHGYGTVILIDK”: the protein production entry is reported as “not failed”. Turning to “MFKGDMNKKRAKALQKVKEAITLHGGQTILSTGITGDDARLAKAVCEAGVKLLEPNHPALALARGHKGVSNMHAAEQIRHEITNSQMAEAVHGVRNVVPDDIFITVGIAGGFTETLPVPLSEKEILEIARAGADGLHTHKSDWDDLQDIVNLAHQYGLTVDAYIGHPDDLHTFGIPARTPEEVASVAKRMQDIGVDMIGLMTGMSYEGVAAGDIPQMIKDRLRALVGAVDVPTLAEGGINLANAKAFKDTGVNILVVGTAIDNMVCNAAKEAVTPFIVH”, the protein production entry is recorded as “not failed”.

In the case of “MFKPEEMVKIELISLARYRDIIMTYLHERGVVQLEEVPIEDIQHDAPNEYYRKATSYSITMGRLVDTLKGFLPPRKTSIKEFIFPKEREKRVYTYRGIEDLVKDVEKFLSEVEPKIREVETQLTAINNRIANIREIINTLELLSSLNIEIEYLIPGSFLAIEVGKIERERVEKLIGELKNELGDKVFILRRDLGTISLLVVVTLKEFQGKLTSILAKYGFEKVEIPRERGHPRELIPKYNELLKEEMKKLEEIRKKGREFAEKYYEDLVFYKELMDNERDKANYLSYLARTELTVALVGWLPKKNVEEVVEGIKNLTGGKVYINIREPEPNEIEEVPVKLKNPEFISQFEMLTEMYGVPKYNELDPTPILAFTYSFFFGFMLTDFMYGLLLGIVSALLVKGHSKMKDGTWKFAKIMLWSSVFTMLLGALFGSYFGNALDMAGFKVPRIMDAMEEALTVLIIALAIGLGHLFTGYVLGFIVKWKNGDKVGAILDQLSWILIILGVTLFAISSRIDLPKLAWMSVFGAGAVLFIIGEFKNNGLMALLLVISDFFGFVGNWLSYARLMALALATAGIALVINIMVQMIWGFKIGPVPLGIIVGAIVFIGGHIFSTAINALGAFVHALRLHYVEFFGTFYSGEGRRFEPFAARREISELKIEKPGGE”, the protein production result was “failed”.

“MFKVLQCLTIDHDYRYTAAAVVVCMLGSFVTMRLFSKARLATGLQKVNWLFLAGVNGGAAIWTTHFVAMLGYVAAGDVGYDPYLTGLSLLIAITTTTAGFGISAYGGRSVLVEAGGTILGLGIAAMHYTGMAAYNVQGMIFWDQAYVIASLVLGSVLGAIAVNRIARPLNRFCQYSAVAFLILAIASMHYTGMASMSFAFDPRIIIPENLLPPAIMGGGAIAVTLLLLALGLSTYVIDAQSTQQAVARYRHLSLHDPLTGIPNRAAFIEHLNRRTRHISMGAHTALLSIDLDRFKEINDVHGHAAGDAVLRAIADRASSVLKAGEFLARMGGDEFVAMTHSYYTRADGAEFAQRLIEQISKPVEWNGQTFSVGASVGISVRNTGSIDADTLMAQADVAMYRAKSATSDTICFYDKSMDEAARARNALAIAMRSGLANNEFELYYQQQNDTKSGSIVGFEALLRWKHPERGMVSPVEFIPIAEQTGFIVELGEWVLREACAQAARWKKSLAIAVNVAPQQLADNDFPDKVERILAETGLAPERLELEITEGSIIADHRHALVTIRKLKSLGVKIAMDDYGTGYSSLSTLQSFPFDKIKIDRAFIDGLSTNVQSEAIVRSTLILAHSLNIPVLAEGVETKAHIEFLRREGCLQVQGFFFGKPGPLTSIANLVDDTFLSAEDETEEASGRRYIKVVR”: the protein production entry is given as “failed”.

For “MFLGELTERPVSLYAAAVLRIGYGLLYLAFLLREFPHRDEIWGPGSPWTPELARQLFDQTGWVSILTLSDGRAYFEACYALALVTCALFLLGWRTRAVSVLFAVVVASFHARAIFMTDGGDNLVLLMAVYLVFTACGRRWSLDARRTRLRAGASPAASPPARQEADGFRRQLGASRRTLTAVLHNCGMFVIAAQVCFLYGSAGLYKVQGGSWGNGTALHYVLNLDLFRPWPELSLLTDEHDVLMAIACYLTVLLQVAFPFVLFGRLKYPVLTVLLGMHLGIAVLLGLPLFSGAMIVADAVFLPDRCYLLLGRLWRRAGRRTGSTEAGAPARGESAFLPPQSAVSSPRTAAAPVRGRRA”, the protein production result is recorded as “failed”. Turning to “MFLKKGKKKLYKSGKNWVAALLLSAAVLSFYSAGLNQQTASAATSSQTKAVSYDKITNKQTVNYSAYVNENNRNDGLYSAPALTDVASMTSTGSAKSLNGHLVMVSEIDTTKRASTGVSYQYAKITDNNKSYWVDLRALNDSAQITSTQTVNFQAYINGDTRNDGLYSAPALTTSSSLTPLAYSKSLNKKSVMVSEINTTKRASTGLSYQYAKITYNGKTYWVDARAVFDSITSKQTNLNYYATISETNRNDGIYEEPALTSLASMASTGSVKTFDQDSVEVLEIDTTFRNSNDQKYQYAKVTNGTNTYWVDVRALNTSGFAKITSSKTEDYSAYINEANRKDSIYDNGPALTSPTTLTASALAKTVNGDQVEVIALDTTTRSNGSQYTYLEVKDGSNTYWIDSRAVTAYNFDSITNQQTVNETATINEGGRSDGLYNAPALTSPSSLTSTGSAKDLDGQTVTILEIDTTKRASNGNTYQYAKIAYNGKTYWVDARALNNSTYSGAIMVNFEDENGNQLASPIEYTGKIGSTYQPEPKAITGYSVDLAKTGSIDLTYSSTTQTITYIYEKSTATTTDLINGQGQGIDNDSWTVGSDVQPGWYKITPIGLGTDDNIVLNVEGSDSSDLPLANDISGAWFGSDSSAGEISSYQAYLTAGQVIEMQDNGTDAAAGQGLHLETLSTRPATSLIDPESPIPSSFQDLGAGIYEVGVDIRPGNYQVADILGEGYLYTDDGTVSLDLGTGHGDTSTGTITLTTGELLTSTINGISLEPEN”, the protein production result is given as “failed”.

“MFLNGKVFIKGALGPRRRDASVSATQSQGAGGGVWGGPGSELAPPSRPRGRASGLLRIKLFEASRLRSRERKMAAPAGGGGSAVSVLAPNGRRHTVKVTPSTVLLQVLEDTCRRQDFNPSEYDLKFQRTVLDLSLQWRFANLPNNAKLEMVPASRSREGPENTVRIALQLDDGCRLQDSFCSRQTLWELLNHFAQTRERLQQLGERTPVCVYMRDEVTGRAALQNTTLQSLGLTGGSATIRFVIKQYDTTGKQESIAVRSKPPGSPVSSMSADQASSSPLLPLNSGEFSRGDLNHQGGASTSGTSLKGGPKPADAQTKQSTTKESASAPFIPFSGGGQRLGGPSVSLRSLTSPAAKSSTSFSGPGGPSKPKKSKPGEEPPQEPEPPVDRDPVVCHPDLEDLLQPWPAEVPDEFFEVTVDDVRRRLAQLKSERKRLEEAPLVTKAFREAQMKEKLERYPKVALRVLFPDRYILQGFFRPSETVGDLRDFVRSHLGNPELSFYLFIAPPKMVLDDHTLTLFQVPIALRVLLGLAVLGGQALCCGWVGKEPWQALQWVIKPLEPVNSEGAVASEVVSDWAFQPPPLPAWPRGGDWPAQLAGLLSSAGAA”: the protein production entry is recorded as “failed”.

Values taken from a protein production outcome set (Wang et al. 2014).
